Experimental data as given in paper PMC2929599 (Biochemistry, 2009).

Legend:
[1] = biological target: T1, hTHEM2 (human hotdog-fold thioesterase THEM2, thioesterase superfamily member 2) (Homo sapiens, UniProt Q9NPJ3); test: steady-state competitive inhibition, DTNB thioesterase assay; type: biochemical
T1 sequence (Q9NPJ3 1-140): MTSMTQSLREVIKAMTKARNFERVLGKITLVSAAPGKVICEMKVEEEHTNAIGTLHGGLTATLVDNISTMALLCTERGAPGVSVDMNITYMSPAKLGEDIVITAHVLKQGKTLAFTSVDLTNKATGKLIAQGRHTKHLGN

[2] = substrate: CCCCCCCCCC(=O)SCCNC(=O)CCNC(=O)[C@H](O)C(C)(C)COP(=O)(O)OP(=O)(O)OC[C@H]1O[C@@H](n2cnc3c(N)ncnc32)[C@H](O)[C@@H]1OP(=O)(O)O; test: steady-state hydrolysis kinetics; type: biochemical, Homo sapiens; conditions: pH 7.5; 25.0 °C
[3] = substrate: CCCCCCCC/C=C\CCCCCCCC(=O)SCCNC(=O)CCNC(=O)[C@H](O)C(C)(C)COP(=O)(O)OP(=O)(O)OC[C@H]1O[C@@H](n2cnc3c(N)ncnc32)[C@H](O)[C@@H]1OP(=O)(O)O; test: steady-state hydrolysis kinetics; type: biochemical, Homo sapiens; conditions: pH 7.5; 25.0 °C
[4] = substrate: CC(C)(COP(=O)(O)OP(=O)(O)OC[C@H]1O[C@@H](n2cnc3c(N)ncnc32)[C@H](O)[C@@H]1OP(=O)(O)O)[C@@H](O)C(=O)NCCC(=O)NCCSC(=O)Cc1ccc(O)c(O)c1; test: steady-state hydrolysis kinetics; type: biochemical, Homo sapiens; conditions: pH 7.5; 25.0 °C
[5] = substrate: CC(C)(COP(=O)(O)OP(=O)(O)OC[C@H]1O[C@@H](n2cnc3c(N)ncnc32)[C@H](O)[C@@H]1OP(=O)(O)O)[C@@H](O)C(=O)NCCC(=O)NCCSC(=O)Cc1cccc(O)c1; test: steady-state hydrolysis kinetics; type: biochemical, Homo sapiens; conditions: pH 7.5; 25.0 °C
[6] = substrate: CCCCCCCCCCCC(=O)SCCNC(=O)CCNC(=O)[C@H](O)C(C)(C)COP(=O)(O)OP(=O)(O)OC[C@H]1O[C@@H](n2cnc3c(N)ncnc32)[C@H](O)[C@@H]1OP(=O)(O)O; test: steady-state hydrolysis kinetics; type: biochemical, Homo sapiens; conditions: pH 7.5; 25.0 °C
[7] = substrate: CCCCCC/C=C\CCCCCCCC(=O)SCCNC(=O)CCNC(=O)[C@H](O)C(C)(C)COP(=O)(O)OP(=O)(O)OC[C@H]1O[C@@H](n2cnc3c(N)ncnc32)[C@H](O)[C@@H]1OP(=O)(O)O; test: steady-state hydrolysis kinetics; type: biochemical, Homo sapiens; conditions: pH 7.5; 25.0 °C
purified protein = substrate: CCCCCCCCCCCCCC(=O)SCCNC(=O)CCNC(=O)[C@H](O)C(C)(C)COP(=O)(O)OP(=O)(O)OC[C@H]1O[C@@H](n2cnc3c(N)ncnc32)[C@H](O)[C@@H]1OP(=O)(O)O; test: purified protein; conditions: pH 7.5; 25.0 °C

CCNC(=O)CCNC(=O)[C@H](O)C(C)(C)COP(=O)(O)OP(=O)(O)OC[C@H]1O[C@@H](n2cnc3c(N)ncnc32)[C@H](O)[C@@H]1OP(=O)(O)O [desulfoCoA]
Ki [1]: 9 µM

B1: hTHEM2 (human hotdog-fold thioesterase THEM2, thioesterase superfamily member 2) (Homo sapiens) (protein)
chain: T1 sequence (Q9NPJ3 1-140)
Km [2]: 4.9 µM | kcat [2]: 0.016 ± 0.001 s⁻¹ | kcat/Km [2]: 3300 M⁻¹ s⁻¹ | Km [3]: 9 µM | kcat [3]: 0.011 ± 0.001 s⁻¹ | kcat/Km [3]: 1300 M⁻¹ s⁻¹ | Km [4]: 10 µM | kcat [4]: 0.19 ± 0.01 s⁻¹ | kcat/Km [4]: 18000 M⁻¹ s⁻¹ | Km [5]: 41 µM | kcat [5]: 1.4 ± 0.1 s⁻¹ | kcat/Km [5]: 35000 M⁻¹ s⁻¹ | Km [6]: 9.9 µM | kcat [6]: 0.019 ± 0.001 s⁻¹ | kcat/Km [6]: 1900 M⁻¹ s⁻¹ | Km [7]: 9 µM | kcat [7]: 0.017 ± 0.001 s⁻¹ | kcat/Km [7]: 1900 M⁻¹ s⁻¹ | Km (purified protein): 5 µM | kcat (purified protein): 0.02 s⁻¹ | kcat/Km (purified protein): 4000 M⁻¹ s⁻¹
